Our source for the T cell activation (percentage of live CD2+CD16-CD8+ cells expressing CD25) (% below CD20×CD3 (REGN1979) alone) values is patent US20220233690A1.

For the experiment, the target named is CD40 (human) (UniProt P25942). In words: cell-based or functional assay.
UniProt P25942, sequence (P25942 21-277): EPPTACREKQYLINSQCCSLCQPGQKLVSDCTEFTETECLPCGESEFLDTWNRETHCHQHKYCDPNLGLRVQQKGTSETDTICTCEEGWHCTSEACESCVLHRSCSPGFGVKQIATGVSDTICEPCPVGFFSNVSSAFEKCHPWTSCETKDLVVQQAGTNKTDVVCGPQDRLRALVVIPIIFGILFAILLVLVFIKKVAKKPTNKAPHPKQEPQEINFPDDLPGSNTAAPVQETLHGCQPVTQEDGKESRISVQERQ

The substance “Anti-CD40 antibody (IgG1 mutant, REGN3794)” registered a T cell activation (percentage of live CD2+CD16-CD8+ cells expressing CD25) (% below CD20×CD3 (REGN1979) alone) of 35.
